According to the supplement of paper PMC9732359:
± gives the uncertainty stated by the source.

Assay: protein stability index of a GFP-peptide fusion (yeast GPS) (PSI 1-4); higher = more stable; sorted into four equal gates, so the index is relative within each strain
Method in brief: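 Mid-log yeast cultures in leucine-free medium, carrying a pooled plasmid library, were sorted into four equal gates by their GFP/Cherry fluorescence ratio. Each plasmid expressed Cherry along with GFP fused upstream of a tiled 17-residue yeast protein peptide. Plasmids recovered from each gate were PCR-amplified and Illumina-sequenced, with reads assigned to strains by barcodes. The protein stability index was obtained by summing each gate's read frequency weighted by its gate number.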

| Sequence | protein stability index (doa10∆) | protein stability index (pdr5∆) | protein stability index (san1∆) | protein stability index (ubr1∆) |
| --- | --- | --- | --- | --- |
| NINNSSVAEKEEIRSQI [SWI3] | 2.64 ± 0.072 | 2.19 ± 0.077 | 2.2 ± 0.075 | 2.51 ± 0.059 |
| SYTAFSRLTLLLRALKT [PRP8] | 1.27 ± 0.042 | 1.19 ± 0.037 | 1.24 ± 0.082 | 1.25 ± 0.035 |
| RKANREEKLKANKEKKR [RPL24B] | 2.86 ± 0.074 | 1.96 ± 0.065 | 2.12 ± 0.087 | 2.27 ± 0.053 |
| DDFDMLFGENDTSTQAY [NUT1] | 3.42 ± 0.08 | 3.37 ± 0.071 | 3.51 ± 0.053 | 3.2 ± 0.055 |
| PGTIVLYAERVQDRGLS [RPS3] | 2.87 ± 0.06 | 2.99 ± 0.056 | 2.62 ± 0.085 | 3.17 ± 0.041 |
| ENGDYAACEKLLPPIKI [RPN12] | – | – | 1.89 ± 0.21 | – |
| YNNNTIRKLLEKINRMI [CSI1] | 3 ± 0.18 | 2.79 ± 0.17 | – | 3.1 ± 0.19 |
| VNGSPITLVEPEILRFK [RPS16A] | – | 2.79 ± 0.15 | – | 3.36 ± 0.17 |
| MPGVSVRDVAAQDFINA [RPS19A] | 1.81 ± 0.12 | 1.31 ± 0.12 | – | 1.16 ± 0.11 |
| VQPTIGQLPQLPKLNLP [SNF5] | 3.05 ± 0.044 | 2.75 ± 0.046 | 2.49 ± 0.057 | 3.08 ± 0.043 |
| TQLSYLISSSLSNLSKD [YCS4] | 1.7 ± 0.041 | 1.65 ± 0.041 | 1.63 ± 0.074 | 2.13 ± 0.045 |
| IRKTPLAQKKAHLAEIQ [RPL3] | 2.19 ± 0.1 | 1.39 ± 0.066 | 2.77 ± 0.12 | 1.26 ± 0.05 |
| EINAVFNELCDPESRTQ [POP1] | 2.91 ± 0.079 | 3.01 ± 0.069 | 2.75 ± 0.092 | 2.93 ± 0.064 |
| VNNCIWALKSSLNSMTN [RGR1] | 2.71 ± 0.1 | 2.39 ± 0.22 | – | 2.37 ± 0.16 |
| SRDELIRLAKTLKKNNV [RPN10] | 1.77 ± 0.086 | 1.81 ± 0.091 | 2.42 ± 0.17 | 2.07 ± 0.089 |
| NHVKQFYERLDKSTTQL [MED11] | 2.47 ± 0.061 | 2.64 ± 0.081 | 2.5 ± 0.052 | 2.62 ± 0.083 |
| EDFLHFIVAEYIQQKKV [SRB4] | 2.57 ± 0.1 | 2.79 ± 0.078 | 2.28 ± 0.1 | 2.9 ± 0.067 |
| VGTAIDSILNYAKSEFD [ECM29] | 2.76 ± 0.2 | 2.77 ± 0.1 | 2.92 ± 0.25 | 3.08 ± 0.088 |
| PGHSLLLSIKLPGKVNT [SNF5] | 2.37 ± 0.059 | 1.77 ± 0.039 | 2.08 ± 0.058 | 2.29 ± 0.04 |
| VLKADRSWNEPSKSQTN [YML103C/NUP188] | 2.93 ± 0.11 | 3.16 ± 0.1 | 2.89 ± 0.097 | 3.27 ± 0.083 |
| NPFTSATSSTNANAGLF [YOR098C/NUP1] | 2.72 ± 0.077 | 2.84 ± 0.1 | 2.82 ± 0.093 | 3.31 ± 0.074 |
| HVFQYANRPRLVGRKPA [RPC37] | 2.86 ± 0.23 | – | 2.28 ± 0.28 | 2.69 ± 0.082 |

| Sequence | protein stability index (doa10∆) | protein stability index (pdr5∆) | protein stability index (san1∆) | protein stability index (ubr1∆) |
| --- | --- | --- | --- | --- |
| IGAELKREESESAAVYN [SNF2] | 2.99 ± 0.087 | 3.08 ± 0.091 | 2.84 ± 0.071 | 3.21 ± 0.071 |
| LGTIESAQAETEALLLE [DIS3] | 2.92 ± 0.1 | 3.09 ± 0.092 | 3.18 ± 0.097 | 2.82 ± 0.062 |
| QQLVDSEKRLDHFIHLR [SNF12] | 2.3 ± 0.12 | 2.75 ± 0.07 | 2.56 ± 0.078 | 2.68 ± 0.076 |
| LSSAGKNSSVSSLMNGL [SRB5] | – | 1.24 ± 0.11 | – | – |
| FKMNEIVPLHSPFLMGH [SEC65] | 2.71 ± 0.067 | 2.59 ± 0.072 | 2.59 ± 0.082 | 2.62 ± 0.057 |
| LDNLTEDPNSAAFDEVE [DIS3] | 3.19 ± 0.085 | 3.3 ± 0.072 | 3.22 ± 0.041 | 3.12 ± 0.043 |
| AKLIRSAIEHTTLKSVT [RPO21] | 3.46 ± 0.15 | 2.96 ± 0.2 | 3.19 ± 0.19 | 3.04 ± 0.12 |
| KQYDNRITKSNEKSQAE [LRP1] | 2.91 ± 0.087 | 2.91 ± 0.11 | 2.77 ± 0.075 | 3.02 ± 0.037 |
| DQWYCIDKLEDLSRIMD [ITC1] | 2.65 ± 0.26 | 2.64 ± 0.22 | – | – |
| RMSYGSHDKKTKCSTVV [SRP14] | 2.96 ± 0.092 | 3.07 ± 0.12 | 3.19 ± 0.045 | 3.33 ± 0.088 |
| HARTAAVTHNLYYDEDI [PUP2] | 3.21 ± 0.16 | 3.22 ± 0.17 | 2.86 ± 0.23 | 2.63 ± 0.1 |
| TPPDDLHPYVPSSKPQE [SRB8] | 2.71 ± 0.081 | 2.98 ± 0.073 | 2.93 ± 0.048 | 3.07 ± 0.049 |
| PQTTQMFQSQSQLQPQP [YDL088C/ASM4] | 2.7 ± 0.052 | 2.5 ± 0.039 | 2.65 ± 0.046 | 2.46 ± 0.03 |
| ENGRRINELTLLVQKRF [RPS3] | 3.51 ± 0.27 | 3.42 ± 0.11 | 3.55 ± 0.13 | 3.32 ± 0.12 |
| NKGAKAEDVALNEQVKK [NAS6] | 2.98 ± 0.2 | 2.96 ± 0.19 | 2.77 ± 0.15 | 3.1 ± 0.075 |
| ERRVLLSAPLSKELRAQ [RPL26B] | 2.87 ± 0.07 | 2.9 ± 0.047 | 2.89 ± 0.055 | 2.79 ± 0.043 |
| DFDLLNKTLTFETETEV [FAS1] | 3.34 ± 0.079 | 3.37 ± 0.067 | 3.44 ± 0.045 | 3.3 ± 0.051 |
| PNALKPLSESLRLVDDD [RRP6] | 3.15 ± 0.091 | 3.34 ± 0.081 | 2.82 ± 0.093 | 3.23 ± 0.055 |
| ASSTPIPVLGKPTDATG [YOR098C/NUP1] | 2.43 ± 0.055 | 2.88 ± 0.055 | 2.6 ± 0.05 | 2.42 ± 0.036 |
| PLIMATCGSKGSTLNVS [RPO31] | 2.84 ± 0.12 | 2.05 ± 0.074 | 2.54 ± 0.1 | 2.23 ± 0.069 |
| YAKFKRNTMMIQCQIDK [RGR1] | 2.23 ± 0.055 | 2.24 ± 0.051 | 2.1 ± 0.065 | 2.34 ± 0.033 |
